Measured values: the supplement of paper PMC12764529
± gives the half width of the 95% confidence interval.

Legend:
[1] = folding stability dG unfold from chymotrypsin proteolysis; higher = more stable
How it was run: (§1)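 Mini-proteins designed to be under 80 residues and free of cysteine were carried in a PA-tagged cDNA display construct and digested with trypsin and with chymotrypsin. Each protease was applied at 11 threefold-diluted concentrations, alongside a no-protease condition, before sequencing. K50 came from Bayesian fitting of the sequencing counts, and unfolding free energy was obtained by comparing it with a sequence-predicted unfolded-state K50 and a shared folded-state K50, for each protease separately or for both together. Designs were retained only if their AlphaFold2 dimer inter-PAE exceeded 15.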

[2] = folding stability dG unfold from trypsin proteolysis; higher = more stable
How it was run: as §1

[3] = folding stability dG unfold (combined trypsin and chymotrypsin); higher = more stable
How it was run: as §1

Sequence | folding stability dG unfold [1] [kcal/mol] | folding stability dG unfold [2] [kcal/mol] | folding stability dG unfold [3] [kcal/mol]
SAGGMKIYYISKGKKYYVKVILPNNEIIEIETESLEEAIKKAKEELIKKYPNIPPENFKIDYIIPLPESAGG [r13_887_TrMRF] | 4.34 ± 0.078 | 3.81 ± 0.2 | 4.18 ± 0.2
SAGGMKKEKVKITIVVPVEDAEKLREALEKLGFKVVEEKENEDGLLTLTVEVDGKKIEIKIVKKEELSAGGS [r16_170_TrROS_Hall] | 0.81 ± 0.095 | 1.13 ± 0.088 | 1.05 ± 0.28
SAGGMKKGQKVTITIEKNEDGTLRITVKVDGKEFVFEFPKDMSLEELLKKAEEAAKKLNLPVEIEPVSAGGS [r16_446_TrROS_Hall] | 2.65 ± 0.15 | 1.29 ± 0.069 | 2.3 ± 0.25
SAGGMKKYKIKVENLPPGARIITPDGREIKPGEEVEIELPEDVKEIYVILPDGKIVKVKVEEVEPEEESAGG [r13_441_TrROS_Hall] | 4.31 ± 0.15 | 4.12 ± 0.3 | 3.71 ± 0.76
SAGGMKKYKVTVTIELTPPDGTTTTVTVTIDVDGDEKKALEEAEKVAEELKAAGYPVTIKEIKIYEESAGGS [r16_525_JUSTAS] | 4.51 ± 0.3 | 3.8 ± 0.37 | 4.69 ± 0.78
SAGGMKLKPVKEGEEIEIELEIVDKETKKVYKVKAKITVVKDKETKEYYVKIEIENPETGEKYTFLLKSAGG [r13_262_TrROS_Hall] | 2.34 ± 0.12 | 2.17 ± 0.13 | 2.21 ± 0.36
SAGGMKLTPEELKGKTIRIRIKVNGKEYEIEAKVVEVDGELYIEVKIINKETKEEKTITIPLDDVEIVSAGG [r13_289_TrROS_Hall] | 2.1 ± 0.064 | 2.67 ± 0.072 | 2.39 ± 0.25
SAGGMKLTVEIEYDEETEEVTIRIRNEETGEEIEITLSKEEVEKLLEALEKNPEKSIEEALLEALKESAGGS [r8_484_TrROS_Hall] | 2.33 ± 0.11 | 2.58 ± 0.23 | 2.43 ± 0.25
SAGGMKPGAPVEIEFPIPGIPPGRRFRIMIHYPNGKHVEAEYTDNTIKIEIPVPDGDNIHHIYIYFYSAGGS [r16_179_TrROS] | 4.33 ± 0.11 | 3.27 ± 0.084 | 3.86 ± 0.12
SAGGMKPGEKTIRLLLKLPPGEELTPEQVEELAKRLAEELREKGYEVEVEVVERDGELYVLVEVRFPESAGG [r13_442_TrROS_Hall] | 4.275 ± 0.034 | 3.55 ± 0.1 | 4.1 ± 0.044
SAGGMKPGETWRIRTPGKTITIEVKDGKITVTVEENGKKKTIVVEAETEEEALEALRSIPGLEIEKVSAGGS [r16_583_TrROS_Hall] | 1.32 ± 0.13 | 1.73 ± 0.05 | 1.61 ± 0.16
SAGGMKSETIPLTTPEGVPFEVTITTENGKVTVTITPLDPSAPEEVVEAVRAAVEARAAAAGKTVTLVSAGG [r13_774_JUSTAS] | 1.37 ± 0.04 | 1.47 ± 0.046 | 1.42 ± 0.07
SAGGMKTFTLENPPLAPPDRPLGGSTLKLPDGTVLVRINLPSGETILLPSYEELEKLKASGEPVSVTASSAG [r5_42_JUSTAS] | 0.254 ± 0.15 | 0.285 ± 0.055 | 0.348 ± 0.12
SAGGMKTIEITIKTEDGYTIKIKITEKDGKLYIEIEIEDPNMSEEQREKIKKEIEELAKKLNIKVEIPSAGG [r13_774_TrROS_Hall] | 2.8 ± 0.27 | 3.48 ± 0.31 | 3.14 ± 0.42
SAGGMKTLKIKIKVPEDEEKAEELAKKLEELFGLKVEVEKKDGELTITVEVSEEVRELLKELGVEIEPSAGG [r13_156_TrROS_Hall] | 4.15 ± 0.089 | 2.58 ± 0.16 | 3.79 ± 0.16
SAGGMKTSAEELVERLKKELEAKGLKPKEVKKLPDGSLLVEFEEDVVVYIDAKTGTVTVLTPEEYEKLSAGG [r13_717_JUSTAS] | 2.68 ± 0.05 | 1.7 ± 0.12 | 2.4 ± 0.14
SAGGMKTVNLTYTRYLPDKTLEEAKELAKKDLESRGLKILSLPVSREPGAGVVTVSATVEVAPPSLLSAGGS [r16_287_JUSTAS] | 3.99 ± 0.1 | 3.67 ± 0.12 | 3.82 ± 0.27
SAGGMKTYEYELELEGGGRLRIKITEDPNNPVYTVTFYSPEGKKLKTITIPANSIEEALKEAIELLKSAGGS [r16_158_JUSTAS] | 4.79 ± 0.12 | 4.6 ± 0.29 | 4.73 ± 0.18

Sequence | folding stability dG unfold [1] [kcal/mol] | folding stability dG unfold [2] [kcal/mol] | folding stability dG unfold [3] [kcal/mol]
SAGGMKVDPKTNITTIEFPSSNLPELKEAIEKTGEKPVVVILKDPNSDREVRITLTKEEALKYLEKKSAGGS [r16_797_JUSTAS] | 0.71 ± 0.1 | 0.209 ± 0.14 | 0.565 ± 0.18
SAGGMKVEKNTIYIEVEKDMSAEEVAKKIAEELKKKGLKVEIKVEKKEDGTKVIRIKVDGKEIEIYASAGGS [r16_771_TrROS_Hall] | 1.13 ± 0.18 | 1.84 ± 0.094 | 1.51 ± 0.3
SAGGMKVEVEKDPIKDGTTITVETGLDPEEVRAFLEELLGPPLEDVTFETAPDGTLVVTARVPPDVGSAGGS [r16_605_JUSTAS] | 0.564 ± 0.048 | 0.627 ± 0.054 | 0.816 ± 0.12
SAGGMKVIEVEMTADEVKALVKELAEKDDLKIYIYVDGKKIELTVDEIKKIPPENQKVTIIIEKKKESAGGS [r16_628_TrROS_Hall] | 3.11 ± 0.14 | 2.95 ± 0.22 | 3.07 ± 0.28
SAGGMKVRVRLPDGTEVELEVTEVTVSTDPSTGTPVYTITLANGEKLTVTVPVDKPVRPGETVTVTPESAGG [r13_390_JUSTAS] | 3.71 ± 0.053 | 3.72 ± 0.056 | 3.81 ± 0.056
SAGGMKVTEEPDATIVEVPLPDRKLTLTITRDGPGVTVTVTEDGEVLKTIPTDGPAEEAIAAAIAALSAGGS [r8_276_JUSTAS] | 1.43 ± 0.059 | 1.04 ± 0.016 | 1.29 ± 0.07
SAGGMKVTITVTDPEAFRAAVEALPEVPPEQVSTSPLPGNSYTATFPSEKAVELLKAAGVPITEIAASAGGS [r16_381_JUSTAS] | 0.63 ± 0.074 | 0.377 ± 0.022 | 0.568 ± 0.05
SAGGMKVTVTEDGSSSKVTITIKDPKTGIEKTYTATATVLPDGTVVYTITYPDGSKKTIPSSELELSSAGGS [r16_154_JUSTAS] | 4.02 ± 0.051 | 2.11 ± 0.087 | 3.61 ± 0.11
SAGGMKVTVYPDGTVSVEIEPGQTLTVSLGDKEYTVTAEYPSITITTTPVPVPPPAVPPENVDPSLVSAGGS [r16_600_JUSTAS] | 0.984 ± 0.051 | 1.54 ± 0.11 | 1.23 ± 0.15
SAGGMKYLVTITITDPDTGQERVIEVEFPDMTPEEIKEAAEELAEEIASEQGLNLKVEVEVTPIPLLSAGGS [r8_185_JUSTAS] | 3.34 ± 0.077 | 3.95 ± 0.11 | 3.55 ± 0.068
SAGGMLEVTEEPLELGDRPVTRTTITLPDGTVVTVTTEAGTGAMTVTYPDGTTKTVTSEEDALAALLSAGGS [r8_168_JUSTAS] | 1.19 ± 0.051 | 2.66 ± 0.11 | 2.02 ± 0.094
SAGGMLGFRAETDLFVEPIPPGAEVEPLRIGDRLLLIVRHPDGSYTINLFTPVRPLPVPPAFSTANAASAGG [r13_804_TrMRF] | 1.64 ± 0.069 | 1.6 ± 0.036 | 1.68 ± 0.051
SAGGMLILIKVKNKKYEIEINGKKIEVEEKDGYLIIKVSPEALEALKKIPNLENIEEIKIFPEEELKSAGGS [r8_493_TrROS_Hall] | 2.57 ± 0.033 | 2.07 ± 0.035 | 2.32 ± 0.089
SAGGMLLVRIRVKLSPEQIKALEEAGFEVVEERDGEVVVRLEVSPEQLEKLKALFPDAEIEVVELPPESAGG [r13_261_TrROS_Hall] | 4.96 ± 0.1 | 5.44 ± 0.49 | 5.26 ± 0.29
SAGGMLPGEPEVELVLEIEIDVPPGEISAEELERLLRELFPGAEVVDVRVEEEGGKLRIEVVIRLPPSAGGS [r8_202_TrROS_Hall] | 2.67 ± 0.058 | 3.42 ± 0.14 | 3.17 ± 0.13
SAGGMLPLVVKVKTPDGEEYTFVVAYNPETSELWLPLPKEPTWRNVPLTEASSIPEFQIVEARPLALESAGG [r13_994_TrMRF] | 0.943 ± 0.064 | 0.348 ± 0.056 | 0.761 ± 0.087
SAGGMLRIRIDGREIEIGMTVEEILAAIEKELGREISPELREALRKAKTPEEIVEALRKLGLKIEIESAGGS [r16_601_TrROS_Hall] | 5.17 ± 0.086 | 3.66 ± 0.08 | 4.8 ± 0.087
